Test [1] addresses T1, endogenous human PSMA (prostate-specific membrane antigen) expressed on LNCaP human prostate cancer cells (human, UniProt Q04609 1-750). Nature of the test: cell-based or functional assay.
In test [2] the target is T1, endogenous human PSMA …. Nature of the test: flow cytometry on LNCaP cells. The method, then: PSMA expressing LNCaP cells were harvested with enzyme-free Cell Dissociation Buffer (GIBCO) and transferred to V-Bottom 96 well-plates (50,000 cells/well). Cells were incubated on ice for 45 min with serial dilutions of anti-PSMA antibodies PSGB11, PSGB12, PSGC12, PSGD4, PSGD6 and PSA11 in FACS buffer (PBS+ 2% FBS)+NaN₃. […] After 1 wash in FACS buffer, a 1:1000 dilution of Phycoerythrin conjugated anti-Human IgG (γ-chain specific) was added and incubated for 30 min Following a final wash, fluorescence intensity was measured on an Intellicyt High Throughput Flow Cytometer (HTFC).
Data were analyzed using Graphpad Prism software and non-linear regression fit. Data points are shown as the median fluorescence intensity (MFI) of positively labeled cells +/−Standard Error. EC₅₀ values are reported as the concentration of antibody to achieve 50% of maximal PSMA antibodies binding to PSMA expressing cells.
(In general: In flow cytometry, cells or beads pass a laser one at a time.)

Test [3] concerns the target T2, recombinant human PSMA/His (human, UniProt Q04609 44-750).
T2 construct: not shown: His tag
Nature of the test: Octet biolayer interferometry, antibody amine-coupled to AR2G sensor, recombinant human PSMA/His in solution at 0.75 to 48.1 nM, global 1:1 fit; column headed kdis(1/s) (same value in all 7 rows). The protocol: (§1) Specifically, an amine Reactive Second-Generation (AR2G) sensor was coated with antibody (15 ug/ml in acetic buffer, pH5.0) using Sulfo-N-hydroxysuccinimide/N-Ethyl-N′-(3-dimethylaminopropyl)carbodiimide hydrochloride (Sulfo-NHS/EDC) coupling methodology. The sensors were quenched with 1M pH 8.5 ethanolamine Data was collected by moving sensors to serially diluted recombinant human PSMA/His (in PBS buffer) wells, then the data was dissociated by transferring the sensors to PBS wells. A 1:1 binding model was used to fit the data.
A general note: BLI is a label-free optical method that tracks binding on a fibre tip over time.

Test [4] concerns the target T2, recombinant human PSMA/His. Nature of the test: Octet biolayer interferometry, antibody amine-coupled to AR2G sensor, recombinant human PSMA/His in solution at 0.75 to 48.1 nM, global 1:1 fit (same value in all 7 rows). The method, then: as §1
Test [5] concerns the target T2, recombinant human PSMA/His. The test can be described thus: BLI (Octet), antibody amine-coupled to AR2G sensor, PSMA/His in solution, 1:1 model; FIG. 3, antibody PSA11. The protocol:
as §1

T1 sequence (Q04609 whole entry): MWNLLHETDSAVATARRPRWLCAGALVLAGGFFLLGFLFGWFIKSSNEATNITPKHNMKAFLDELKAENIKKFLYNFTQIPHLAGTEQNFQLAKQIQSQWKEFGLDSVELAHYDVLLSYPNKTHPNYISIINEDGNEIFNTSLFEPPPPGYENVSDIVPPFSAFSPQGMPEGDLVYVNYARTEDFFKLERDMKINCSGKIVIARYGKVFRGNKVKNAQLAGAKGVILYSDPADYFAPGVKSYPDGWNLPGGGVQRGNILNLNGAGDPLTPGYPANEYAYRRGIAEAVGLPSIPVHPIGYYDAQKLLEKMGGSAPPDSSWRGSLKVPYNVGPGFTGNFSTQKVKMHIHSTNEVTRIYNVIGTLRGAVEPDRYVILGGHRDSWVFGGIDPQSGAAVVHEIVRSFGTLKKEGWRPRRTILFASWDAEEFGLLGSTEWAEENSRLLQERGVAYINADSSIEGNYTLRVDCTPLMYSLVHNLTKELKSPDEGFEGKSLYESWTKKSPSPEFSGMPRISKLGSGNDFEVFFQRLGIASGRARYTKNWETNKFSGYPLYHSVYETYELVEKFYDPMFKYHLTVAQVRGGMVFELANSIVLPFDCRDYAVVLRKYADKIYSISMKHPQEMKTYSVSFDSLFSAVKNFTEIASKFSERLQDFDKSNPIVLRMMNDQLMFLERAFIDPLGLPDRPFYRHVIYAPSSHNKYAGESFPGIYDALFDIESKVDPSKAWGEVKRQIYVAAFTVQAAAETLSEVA
T2 sequence (Q04609 44-750 limits assumed): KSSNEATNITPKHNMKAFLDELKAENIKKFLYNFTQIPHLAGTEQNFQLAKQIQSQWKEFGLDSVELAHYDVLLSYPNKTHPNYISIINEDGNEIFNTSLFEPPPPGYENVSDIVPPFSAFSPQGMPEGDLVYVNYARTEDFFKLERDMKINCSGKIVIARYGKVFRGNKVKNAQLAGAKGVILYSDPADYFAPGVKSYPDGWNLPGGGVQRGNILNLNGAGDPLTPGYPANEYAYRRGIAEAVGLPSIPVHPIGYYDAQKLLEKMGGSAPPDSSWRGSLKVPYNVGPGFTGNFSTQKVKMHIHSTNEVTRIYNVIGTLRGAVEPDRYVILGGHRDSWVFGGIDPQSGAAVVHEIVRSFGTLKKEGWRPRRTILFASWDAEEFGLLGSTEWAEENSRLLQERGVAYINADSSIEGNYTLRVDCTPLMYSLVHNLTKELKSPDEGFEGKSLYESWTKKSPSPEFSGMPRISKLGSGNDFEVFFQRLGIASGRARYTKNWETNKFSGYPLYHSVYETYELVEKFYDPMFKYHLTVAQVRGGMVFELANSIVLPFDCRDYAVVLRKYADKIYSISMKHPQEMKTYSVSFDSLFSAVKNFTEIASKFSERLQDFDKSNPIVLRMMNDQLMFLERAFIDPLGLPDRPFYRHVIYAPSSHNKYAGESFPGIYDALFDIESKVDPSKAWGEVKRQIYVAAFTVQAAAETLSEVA

B1: anti-PSMA antibody PSGD6 (antibody, V domains shown)
VH: QVQLVQSGGGLVQPGGSLRLSCAASGFTFSSYWMSWVRQAPGKGLEWVANIKQDGSEKYYVDSVKGRFTISRDNAKNSLYLQMNSLRAEDTAVYYCARVWDYYYDSSGDAFDIWGQGTMVTVSS
VL: DIVMTQSPSSVSASVGDRVTITCRASQAISSWLAWYQQKPGKAPKLLIYAASSLQSGVPSRFSGSGSGTDFTLTISSLQPEDFATYYCQQAYSFPVTFGPGTKVDIK
notes: Fully human IgG
One may read the EC50 as the midpoint of the concentration-response curve. The low end stands for an effect from little substance, the high end for a need for much substance. For the molecule B1, in test [1], the “Cell killing, 2-hours-wash method (IC50, nM); antibody pre-complexed with Protein G-MMAF, LNCaP cells, Cell Titer Glo” value (shortened to “Cell killing, 2-hours-wash method”) was found to be 1.13 nM and the “Cell killing, No wash method (IC50, nM); antibody pre-complexed with Protein G-MMAF, LNCaP cells, Cell Titer Glo” value (“Cell killing, No wash method (IC50, nM)” for short) turned out to be 0.04 nM. For the same molecule, it took 1.92 nM to reach a half-maximal effect in test [2] (EC50).

B2: anti-PSMA antibody PSGD3 (antibody, V domains shown)
VH: QVQLVQSGGGLVQPGGSLRLSCAASGFTFSSYWMSWVRQAPGKGLEWVANIKQDGSEKYYVDSVKGRFTISRDNAKNSLYLQMNSLRAEDTAVYYCARVWDYYYDSSGDAFDIWGQGTMVTVSS
VL: DIVMTQSPSSVSASVGDRVTITCRASQDINNWLAWYQQKAGKAPKLLIYVATKLQNGVPSRFSGSGSGTDFTLSISNLQPEDFATYYCQQAKSFPYTFGQGTKLEIK
notes: Fully human IgG
Turning to B2, in test [1], the “Cell killing, 2-hours-wash method” value came to 2.24 nM and the “Cell killing, No wash method (IC50, nM)” value came to 0.12 nM. Moreover, the EC50 in test [2] is 3.15 nM.

B3: anti-PSMA antibody PSGC9 (antibody, V domains shown)
VH: QVQLVQSGGGLVQPGGSLRLSCAASGFTFSSYWMSWVRQAPGKGLEWVANIKQDGSEKYYVDSVKGRFTISRDNAKNSLYLQMNSLRAEDTAVYYCARVWDYYYDSSGDAFDIWGQGTMVTVSS
VL: AIRMTQSPSTLSASVGDRVTITCRASQNIYGWLAWYQQKPGKAPELLIYAASSLQSGVPSRFSGSGSGTDFTLTINSLQPEDFATYYCQQSYTIPFTFGPGTKVDIK
notes: Fully human IgG
In the case of B3, in test [1], the “Cell killing, 2-hours-wash method” value was determined as 1.22 nM and the “Cell killing, No wash method (IC50, nM)” value came out at 0.06 nM. Besides, a half-maximal effect in test [2] (EC50) was put at 2.05 nM.

B4: anti-PSMA antibody PSGC12 (antibody, V domains shown)
VH: QVQLVQSGGGLVQPGGSLRLSCAASGFTFSSYWMSWVRQAPGKGLEWVANIKQDGSEKYYVDSVKGRFTISRDNAKNSLYLQMNSLRAEDTAVYYCARVWDYYYDSSGDAFDIWGQGTMVTVSS
VL: DIVMTQSPSSVSASVGDRVTITCRASQDVGTWLAWYQQKPGRAPKLLIYVASSLQSGVPSRFSGSGSGTDFTLTISSLQPEDSATYYCQQAKGIPYTFGQGTKLEIK
notes: Fully human IgG
B4 displayed an EC50 in test [2] of 2.84 nM. This lies in the single-digit nanomolar range.

B5: anti-PSMA antibody PSGC8 (antibody, V domains shown)
VH: QVQLVQSGGGLVQPGGSLRLSCAASGFTFSSYWMSWVRQAPGKGLEWVANIKQDGSEKYYVDSVKGRFTISRDNAKNSLYLQMNSLRAEDTAVYYCARVWDYYYDSSGDAFDIWGQGTMVTVSS
VL: AIRMTQSPSSVSASVGDRVTITCRASQGISSWLAWYQQKPGKAPKLLIYAASSLQSGVPSRFSGSGSGTDFTLTISSLKPEDFATYYCQQANSFPRALTFGGGTKVEIK
notes: Fully human IgG
On to B5, for which, in test [2], the response was half-maximal at 3.84 nM (EC50).

B6: anti-PSMA antibody PSGG6 (antibody, V domains shown)
VH: QVQLVQSGGGLVQPGGSLRLSCAASGFTFSSYWMSWVRQAPGKGLEWVANIKQDGSEKYYVDSVKGRFTISRDNAKNSLYLQMNSLRAEDTAVYYCARVWDYYYDSSGDAFDIWGQGTMVTVSS
VL: EIVLTQSPSSLSASVGDRVTITCRASQGISSYLAWYQQKPGKAPKLLIYAASTLQSGVPSRFSGSGSGTDFTLTISSLQPEDFATYYCQQLNSYPRGITFGQGTKLEIK
notes: Fully human IgG
B6: the response in test [2] was half-maximal at 1.3 nM (EC50). Against the preceding molecule, the EC50 is about 3-fold lower.

B7: anti-PSMA antibody PSA11 (antibody, V domains shown)
VH: QVQLVQSGGGLVQPGGSLRLSCAASGFTFSSYWMSWVRQAPGKGLEWVANIKQDGSEKYYVDSVKGRFTISRDNAKNSLYLQMNSLRAEDTAVYYCARVWDYYYDSSGDAFDIWGQGTMVTVSS
VL: VIWMTQSPSSVSASVGDRVTITCRASQGISSWLAWYQQKPGKAPKLLIYAASNLQSGVPSRFSGSGSGTDFTLTISSLQPEDFATYYCQQANSFPLTFGGGTKVDIK
notes: Fully human IgG (detected with anti-human IgG, gamma-chain specific)
One may read the koff as the rate constant with which the complex falls apart. One may read the Kd as the concentration at which binding is half-saturated. As usually defined, the kon is the second-order rate constant of association. Take B7: the dissociation rate constant (koff) in test [3] turned out to be 6e-05 s⁻¹. For the same molecule, in test [1], the “Cell killing, 2-hours-wash method” value is 1.55 nM and the “Cell killing, No wash method (IC50, nM)” value worked out at 0.08 nM. In test [4], the Kd turned out to be 0.681 nM and the kon was found to be 88100 M⁻¹ s⁻¹. Moreover, the dissociation constant Kd in test [5] was roughly 0.67 nM. In test [2], this molecule displayed a half-maximal effective concentration (EC50) of 2.4 nM.

B8: anti-PSMA antibody PSGH3 (antibody, V domains shown)
VH: QVQLVQSGGGLVQPGGSLRLSCAASGFTFSSYWMSWVRQAPGKGLEWVANIKQDGSEKYYVDSVKGRFTISRDNAKNSLYLQMNSLRAEDTAVYYCARVWDYYYDSSGDAFDIWGQGTMVTVSS
VL: DIVMTQSPSSVSASVGDRVTITCRASQGISNWLAWYQQKPGKAPKLLIYVASSLQSGVPSRFSGSGSGTDFTLTISSLQPEDFATYYCQQANSFPITFGQGTRLEIK
notes: Fully human IgG
B8: in test [1], the “Cell killing, 2-hours-wash method” value was 1.51 nM and the “Cell killing, No wash method (IC50, nM)” value stood at 0.06 nM. The same molecule yielded an EC50 in test [2] of 3.72 nM.

B9: anti-PSMA antibody PSGD4 (antibody, V domains shown)
VH: QVQLVQSGGGLVQPGGSLRLSCAASGFTFSSYWMSWVRQAPGKGLEWVANIKQDGSEKYYVDSVKGRFTISRDNAKNSLYLQMNSLRAEDTAVYYCARVWDYYYDSSGDAFDIWGQGTMVTVSS
VL: DIVMTQSPSSLSASVGDRVSITCRASQGISTWLAWYQQKPGKAPDLLIYAASNLQSGVPSRFSGSGSGTDFTLTISSLQPEDFATYYCQQANSFPLTFGGGTKVEIK
notes: Fully human IgG
Turning to B9, in test [1], the “Cell killing, 2-hours-wash method” value stood at 2.09 nM and the “Cell killing, No wash method (IC50, nM)” value came to 0.06 nM. In test [2], this molecule displayed an EC50 of 1.59 nM.

B10: anti-PSMA antibody PSGB12 (antibody, V domains shown)
VH: QVQLVQSGGGLVQPGGSLRLSCAASGFTFSSYWMSWVRQAPGKGLEWVANIKQDGSEKYYVDSVKGRFTISRDNAKNSLYLQMNSLRAEDTAVYYCARVWDYYYDSSGDAFDIWGQGTMVTVSS
VL: DVVMTQSPSTLSASVGDRVTITCRASQSISSWLAWYQQKPGKAPKLLIFAASSLQSGVPSRFSGSGSGTDFALTISSLQPEDFATYYCQESYSIPWTFGQGTKVEIK
notes: Fully human IgG
As for B10, in test [1], the “Cell killing, 2-hours-wash method” value worked out at 1.66 nM and the “Cell killing, No wash method (IC50, nM)” value amounted to 0.05 nM. This molecule came in with an EC50 in test [2] of 3.46 nM.

B11: anti-PSMA antibody PSGH8 (antibody, V domains shown)
VH: QVQLVQSGGGLVQPGGSLRLSCAASGFTFSSYWMSWVRQAPGKGLEWVANIKQDGSEKYYVDSVKGRFTISRDNAKNSLYLQMNSLRAEDTAVYYCARVWDYYYDSSGDAFDIWGQGTMVTVSS
VL: DIVMTQSPSSLSASVGDRVTITCRASQGISSWLAWYQQKPGKAPKLLIYAASSLQSGVPSRFSGSGSGTDFTLTINSLQPEDFATYYCQQASGFPFTFGPGTKVDIK
notes: Fully human IgG
In test [2], B11 returned an EC50 of 2.13 nM.

B12: anti-PSMA antibody PSGE10 (antibody, V domains shown)
VH: QVQLVQSGGGLVQPGGSLRLSCAASGFTFSSYWMSWVRQAPGKGLEWVANIKQDGSEKYYVDSVKGRFTISRDNAKNSLYLQMNSLRAEDTAVYYCARVWDYYYDSSGDAFDIWGQGTMVTVSS
VL: DVVMTQSPSSVSASVGDRVTITCRASQGISSWLAWYQQKPGKAPKLLIYAASTLQSGVPSRFSGSGSGTDFTLTINNLQPEDFATYYCQQTASFPINFGGGTKVEIK
notes: Fully human IgG
Turning to B12, in test [1], the “Cell killing, 2-hours-wash method” value stood at 1.58 nM and the “Cell killing, No wash method (IC50, nM)” value came out at 0.08 nM. In test [2], this molecule yielded an EC50 of 1.92 nM.

B13: anti-PSMA antibody PSGF9 (antibody, V domains shown)
VH: QVQLVQSGGGLVQPGGSLRLSCAASGFTFSSYWMSWVRQAPGKGLEWVANIKQDGSEKYYVDSVKGRFTISRDNAKNSLYLQMNSLRAEDTAVYYCARVWDYYYDSSGDAFDIWGQGTMVTVSS
VL: AIQMTQSPSSVSASVGDRVTITCRASQGISSWLAWYQQKPGKAPKLLIYAASSLQSGVPSRFSGSGSGTDFTLTISSLQPEDIATYYCQESYSTPFTFGPGTKVDIK
notes: Fully human IgG
Regarding B13, in test [1], the “Cell killing, 2-hours-wash method” value stood at 1.33 nM and the “Cell killing, No wash method (IC50, nM)” value stood at 0.13 nM. This molecule returned an EC50 in test [2] of 2.08 nM.

These data come from patent US20160326264A1 (SORRENTO THERAPEUTICS, published 2016).
